Assay in all cases: flow cytometry, 293-F transfectants
A general note: Flow cytometry measures light scatter and fluorescence of single cells or particles in a stream.

Assay [1] concerns the target T1, OX40 chimera 1544: human OX40 with mouse domains 1A, 1B and 2A (aa 30-81), on FreeStyle 293-F cells (human; mouse, UniProt P47741 26-77).
T1 construct: domain: 1A, 1B and 2A
T1 sequence: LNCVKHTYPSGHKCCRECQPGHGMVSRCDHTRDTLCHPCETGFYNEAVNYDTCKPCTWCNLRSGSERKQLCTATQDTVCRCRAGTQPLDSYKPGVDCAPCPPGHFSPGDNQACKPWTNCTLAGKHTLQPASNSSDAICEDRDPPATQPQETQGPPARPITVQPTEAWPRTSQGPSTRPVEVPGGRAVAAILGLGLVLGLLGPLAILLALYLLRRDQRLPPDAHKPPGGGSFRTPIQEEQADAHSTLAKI
How it is done: (§1) The mouse/human chimeras were transiently transfected into FreeStyle 293-F cells (Invitrogen), incubated 48 hours in FreeStyle 293 expression medium (Invitrogen) 37 C, 8% CO₂, 135 rpm. The transfected cells were incubated with human OX40 antibodies, human OX40L (hOX40L, RnD Systems), mouse OX40L (mOX40L, RnD Systems) and controls for 30 min 4° C. and then detected with a-huIgG-PE (Jackson Immunoresearch) 30 min 4° C. Cells were analyzed with FACS Verse (BD Biosciences). Binding to the different chimeric constructs were calculated as relative (mean fluorescence intensity) MFI compared to the binding of the isotype control.

Assay [2] addresses T2, OX40 chimera 1545: human OX40 with mouse domains 1B, 2A and 2B (aa 43-107), on FreeStyle 293-F cells (human; mouse, UniProt P47741 39-103).
T2 construct: domain: 1B, 2A and 2B; Limits derived as for 1544
T2 sequence: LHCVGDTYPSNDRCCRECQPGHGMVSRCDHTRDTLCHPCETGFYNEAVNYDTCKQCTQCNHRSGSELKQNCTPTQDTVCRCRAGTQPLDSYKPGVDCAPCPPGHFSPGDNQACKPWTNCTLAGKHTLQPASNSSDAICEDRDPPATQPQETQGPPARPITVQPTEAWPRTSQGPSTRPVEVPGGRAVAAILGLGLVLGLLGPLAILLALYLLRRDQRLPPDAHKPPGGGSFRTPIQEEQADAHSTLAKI
Here is the method: as §1

Assay [3] deals with T3, OX40 chimera 1546: human OX40 with mouse domains 2A, 2B and module 3 (aa 66-126), on FreeStyle 293-F cells (human; mouse, UniProt P47741 62-124).
T3 construct: domain: 2A, 2B and module 3; Limits derived as for 1544
T3 sequence: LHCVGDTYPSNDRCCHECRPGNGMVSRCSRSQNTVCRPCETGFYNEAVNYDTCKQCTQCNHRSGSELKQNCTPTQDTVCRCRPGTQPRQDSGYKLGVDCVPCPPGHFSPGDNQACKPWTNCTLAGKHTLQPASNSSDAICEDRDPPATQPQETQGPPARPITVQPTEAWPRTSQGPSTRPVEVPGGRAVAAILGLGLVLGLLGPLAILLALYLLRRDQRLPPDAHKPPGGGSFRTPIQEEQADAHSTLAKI
Here is the method: as §1

The target in assay [4] is T4, OX40 chimera 1547: human OX40 with mouse domain 2B, module 3 and domain 4A (aa 83-141), on FreeStyle 293-F … (human; mouse, UniProt P47741 79-139).
T4 construct: domain: 2B, module 3 and 4A; Limits derived as for 1544
T4 sequence: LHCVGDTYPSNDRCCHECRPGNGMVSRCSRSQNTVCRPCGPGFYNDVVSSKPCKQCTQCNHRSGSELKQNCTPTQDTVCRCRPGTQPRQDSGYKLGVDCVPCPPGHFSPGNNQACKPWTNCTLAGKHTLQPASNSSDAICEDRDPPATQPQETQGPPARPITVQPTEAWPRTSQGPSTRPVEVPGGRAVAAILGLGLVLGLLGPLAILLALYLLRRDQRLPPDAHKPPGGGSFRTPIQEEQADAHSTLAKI
Here is the method:
as §1

In assay [5] the target is T5, OX40 chimera 1548: human OX40 with mouse module 3 and domains 4A and 4B (aa 108-167), on FreeStyle 293-F cells (human; mouse, UniProt P47741 104-165).
T5 construct: domain: module 3, 4A and 4B; Limits derived as for 1544
T5 sequence: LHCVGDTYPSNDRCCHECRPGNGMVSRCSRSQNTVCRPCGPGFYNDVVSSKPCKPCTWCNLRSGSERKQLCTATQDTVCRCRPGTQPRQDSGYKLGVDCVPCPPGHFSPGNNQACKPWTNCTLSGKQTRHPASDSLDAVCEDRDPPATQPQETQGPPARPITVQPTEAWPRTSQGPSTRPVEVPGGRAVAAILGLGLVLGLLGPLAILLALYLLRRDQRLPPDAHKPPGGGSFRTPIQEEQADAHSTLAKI
Here is the method:
as §1

Assay [6] concerns the target T6, construct 84: full length OX40 sequence, on FreeStyle 293-F cells (human, UniProt P43489 29-277).
T6 sequence: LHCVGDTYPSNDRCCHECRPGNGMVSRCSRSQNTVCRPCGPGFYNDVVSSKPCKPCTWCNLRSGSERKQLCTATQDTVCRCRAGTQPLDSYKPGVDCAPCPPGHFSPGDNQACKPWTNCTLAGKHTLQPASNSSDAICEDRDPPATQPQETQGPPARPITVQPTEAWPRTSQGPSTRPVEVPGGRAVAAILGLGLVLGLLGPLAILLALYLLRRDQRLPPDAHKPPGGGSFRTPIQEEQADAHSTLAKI
How it is done: as §1

B1: anti-OX40 antibody 1168/1135 (antibody, V domains shown)
VH: EVQLLESGGGLVQPGGSLRLSCAASGFTFSGSSMSWVRQAPGKGLEWVSSISYYGGYTYYADSVKGRFTISRDNSKNTLYLQMNSLRAEDTAVYYCARYFPHYYFDYWGQGTLVTVSS
VL: not shown
notes: Tested as IgG
Consider B1, for which the “relative MFI vs isotype control” value in assay [1] stood at 13.2; in assay [2], 46.6; in assay [3], 0.9; in assay [4], 1; in assay [5], 1; in assay [6], 29.6.

B2: anti-OX40 antibody 1542/1135 (antibody, V domains shown)
VH: EVQLLESGGGLVQPGGSLRLSCAASGFTFGSSSMYWVRQAPGKGLEWVSGIGYYSYSTSYADSVKGRFTISRDNSKNTLYLQMNSLRAEDTAVYYCARGYPHHYFDYWGQGTLVTVSS
VL: not shown
notes: Tested as IgG
Take B2: the “relative MFI vs isotype control” value in assay [1] stood at 7.1; in assay [2], 40.2; in assay [3], 0.9; in assay [4], 1; in assay [5] it was 1.2; in assay [6], 29.4.

B3: anti-OX40 antibody 1164/1135 (antibody, V domains shown)
VH: EVQLLESGGGLVQPGGSLRLSCAASGFTFYGSSMYWVRQAPGKGLEWVSGIYSSGGYTSYADSVKGRFTISRDNSKNTLYLQMNSLRAEDTAVYYCARGVPHGYFDYWGQGTLVTVSS
VL: not shown
notes: Tested as IgG
Consider B3, for which the “relative MFI vs isotype control” value was determined as 14 in assay [1]; 37.3 in assay [2]; 0.9 in assay [3]; 1 in assay [4]; 1 in assay [5]; 27.5 in assay [6].

B4: anti-OX40 antibody 1524/1525 (antibody, V domains shown)
VH: EVQLLESGGGLVQPGGSLRLSCAASGFTFGSYYMGWVRQAPGKGLEWVSSIGSYYGYTYYADSVKGRFTISRDNSKNTLYLQMNSLRAEDTAVYYCARHDYGALDYWGQGTLVTVSS
VL: DIQMTQSPSSLSASVGDRVTITCRASQSISSYLNWYQQKPGKAPKLLIYAASSLQSGVPSRFSGSGSGTDFTLTISSLQPEDFATYYCQQYGPSGLFTFGQGTKLEIK
notes: Tested as IgG
As for B4, the “relative MFI vs isotype control” value in assay [1] came to 1.5; in assay [2] it was 0.9; in assay [3], 0.9; in assay [4] it was 1; in assay [5] it was 15.4; in assay [6], 31.4.

B5: anti-OX40 antibody 1526/1527 (antibody, V domains shown)
VH: EVQLLESGGGLVQPGGSLRLSCAASGFTFSGYSMYWVRQAPGKGLEWVSGIGYSGYGTYYADSVKGRFTISRDNSKNTLYLQMNSLRAEDTAVYYCARYYFHDYAAYSLDYWGQGTLVTVSS
VL: DIQMTQSPSSLSASVGDRVTITCRASQSISSYLNWYQQKPGKAPKLLIYAASSLQSGVPSRFSGSGSGTDFTLTISSLQPEDFATYYCQQYGSDSLLTFGQGTKLEIK
notes: Tested as IgG
As to B5, the “relative MFI vs isotype control” value in assay [1] worked out at 1.1; in assay [2], 1.3; in assay [3], 0.9; in assay [4], 1; in assay [5] it was 12.7; in assay [6] it was 21.4.

B6: anti-OX40 antibody 1482/1483 (antibody, V domains shown)
VH: EVQLLESGGGLVQPGGSLRLSCAASGFTFSSYAMSWVRQAPGKGLEWVSYISYYSGYTYYADSVKGRFTISRDNSKNTLYLQMNSLRAEDTAVYYCARGYGYLDYWGQGTLVTVSS
VL: DIQMTQSPSSLSASVGDRVTITCRASQSISSYLNWYQQKPGKAPKLLIYAASSLQSGVPSRFSGSGSGTDFTLTISSLQPEDFATYYCQQYGSLLTFGQGTKLEIK
notes: Tested as IgG
For B6, the “relative MFI vs isotype control” value worked out at 8.4 in assay [1]; 44.4 in assay [2]; 0.9 in assay [3]; 1 in assay [4]; 1.1 in assay [5]; 24.9 in assay [6].

The values above are taken from patent publication US20210238298A1 (ALLIGATOR BIOSCIENCE, published 2021).
